System: PFEK-protease D-G-6×HIS zymogen
Sequence (chain, as listed by the source): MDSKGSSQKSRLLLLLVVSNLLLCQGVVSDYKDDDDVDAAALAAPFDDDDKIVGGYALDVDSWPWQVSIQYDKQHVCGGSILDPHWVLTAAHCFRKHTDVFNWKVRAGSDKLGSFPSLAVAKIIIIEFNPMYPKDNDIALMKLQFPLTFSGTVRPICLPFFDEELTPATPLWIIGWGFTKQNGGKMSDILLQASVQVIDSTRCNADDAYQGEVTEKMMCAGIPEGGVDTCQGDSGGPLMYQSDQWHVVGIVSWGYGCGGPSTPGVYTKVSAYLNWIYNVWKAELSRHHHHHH

enterokinase
cleavage and activation of the zymogen (SDS-PAGE mobility shift and Western blot): This demonstrates the quantitative cleavage of the expressed and purified zymogen to generate the processed and activated protease

— US7070977
